Results as given in paper PMC6751209.

Target: 53BP1 (UniProt Q12888)
Assay: FLAG-53BP1 IP, Myc-PP4R3β immunoblot
Conditions: reference: wild type, mitotic cells; sites S840

Substance: PP4R3β (from UniProt Q5MIZ7) S840A, mitotic cells
- binding against the reference: weaker
